From the domain aggregation screens of Martell et al. (2025)

Assay: soluble fraction after stress (log2 fold change); higher = more stays soluble; pooled small domains, quantitative proteomics
Details: stress: 50 degC
Procedure, shortened: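 Pooled custom libraries of small protein domains were measured in a high-throughput format, with quantitative proteomics as the read-out. Each library was stressed at 50°C. Aggregation propensity is given as the base-two logarithm of the fold change in how much of each protein stays soluble after the stress. Higher values mean a larger share of the protein remains in solution.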

Sequence	soluble fraction (log2)
HMENKVLVITEEEKGKRLDVYLAAALEVSRSYAQQLIQGEDVVVNDKQVKANYRLSEGDVVQVQLD	≥ 0.62
HMDPVATLTPREREVLELMAEGRTNAGIAEAMVVTEGAVEKHIQRIFAKLGLHADGGVHRRVAAVLALLG	-1.01
HMGIAERKEKQKLEIRNAILEASRKLIVEEGFEKVTMRKIADLIEYSPTTVYLYFKDKNEILFHLHQ	-1.37
HMESPELIHILKEAEWQIWQQIQGLPEKQRIAMTLFAMDDLSYQEIADVMKVSVSAIESLLFRARTQLKKY	-0.601
HMRQSDIAAAFRESILRSSKGFQYLHTRDFVTALRRRGIHLSEVEANSWIAREKTYFVDSALDHSENRLWI	-1.6
HMNLFKAPMPGLIRTIVVAEGQEVKKGDVILILEAMKMENALKSPADLVVKSIKVQQGQAVEKNQLLIEF	-0.0526
HMLTTADLMMVHANSNKAIDYIVTDDNTKLTVDEPVTAKWITTADSIYRAVAYYNKVGDGKAQIVSVGN	0.0204
HMKTLKHYFASIAHEFGREEAELMLLSVFKTPFEQRLMLFMKDPALTEAQVQQLDNLVRQRKQGVPLPYIL	-0.22
HMESILDDFPGLGEKRKKALLEHFGSISKIKAATVGQLREVDGIGFETAAALREFLDANFPA	0.158
HMADKGTITNQQEKILKALILFPEGASIEEIQKAADLGIDKRQFQRRLNTLIESGQINRTGKSRGTKYHTI	0.0555
HMENLSFNINSEEEGQRIDKYLSVMIEGKSRSFVQGLIEEKKVKANSKVIKSNYKLKKGDFIEVEVPEPV	0.27
HMAGSTAASKHALALLNTARHSIRDGNLTSAAAEIKQALATSQEQIVITEARSLMTAMEARATTRRATVLQ	-0.168
HMGVSAGQVRGLIRNLIAGEDKSKPLSDLALERELEKREIRISRRTVAKYRAELGIPNSDQRRYLP	-0.642
HMLENIVFTNKFKNKRLDVLLVDMKLVSSRQKAVSLIMRGNVFVEEERADKPGKIIKLNQTISLKK	-2.6
HMSHLTKKQEEVLLFIRDYYEEEGRSPSYSDIQHHFGLKSKSSVQDYIGYLKKAGFLQKSVGSRAIELV	-2.05
HMGNLVDGINKKLTHVRDSLPEGYTLDEFKSAFQQQYPAAYDAYEGDKGKQFDKWLGNVIQSLPKK	0.161
HMAKSPYDVLGLKEDAPFDEVKKRYRELVKKYHPDILMGRGESEEMIEKSTRKLQEINEAYETIKQRA	0.118
HMPTTTFENLPDAKKKTIIAALLKEFSQSPLSKAQVAPIVKESQIARGAFYKYFVDLTDAYTYLYRQ	-0.204
HMVVPRSFKYEVLAHGGWAGNAQRYQTKEEALHAGLALSRRWTAVEDYRAVPSDDLPNQPAL	-0.259
HMDFITPYEIEQGQYEGAELYEDGKFEEAFSLSSIAAQRGMKTAQYLLGIMFLKGEYVDQSLAIGMAW	-0.272
HMPFESEMKHWIHLFAHELNLKVSDKYTQKIIEIFGNNFSEIFNEMSKSSLVSSNEKDLLNALEKSGNIH	-0.678
HMDEAEELYQAVQALKPKYREVILLHYYQGLRVGEIAAILRAPQSTVSIRLRRARQMLNRMLG	-0.548
HMSNIVNYEVYVYQNDAWDLLARYPSEKRAEAIEYAKSTEFSLNRPTKVIRETYDLDTQKFQEALIYLSE	-0.239
HMLADIGGRIADLRREVGLTQGELAEKADISVVHLSNIELGKKTPGLSTLIRIAEALDVATDWILQA	-1.02
HMAPLEPLTDRETEMLVRLANGASNKVMARESFVSENTIKFHLKNIYAKLGVTSRLQAIAAARNQGLI	-0.891
HMSSEITYDKFIEMVEEGNVKEVTLQSDTLTIKPKHQDSAFSEKEYYTRQMESADQLTERLEGTGIEFHS	0.104
HMESKPLTPSEIKKLRMDANMTQAGLAEVLGMTVKAVEAWESGRNIPSGAADKILRVMQKHPSVIGMMQS	0.156
HMTARPTLEKLKYMIHEAGITENSLKVIVATKGHYGLDADISTYSDDFITRWIIPNWTKIVQTISNNK	-0.348

Sequence	soluble fraction (log2)
HMLMKPQKTRDVLRYLKSIGWVRLRGGQGSHEIWGLPDGSIRAVIPAGHREISAGVLMQLKRAGVDVPTQW	-0.557
HMVLFDLSEREKEVLKLLADGNSYKMIASRLEITYFTVNAHLKKIYEKLQVHSASEAVSVALRNSL	-1.15
HMGSLAVVPSLTGKTLQEAQSKAADYGLALEIEGYVASTAVDYGRIVSQSPDAGFSVKSGSSVKVSVSAG	0.117
HMKEVKRDQVIEAARKLFHQFGFKKVSMDEIAKEAGVTKKTIYMYFESKEELLKYFIQEEISN	-0.224
HMLPGERFKVKIAQAGKEKKQGIGYLNDGTMVVIENGIEKVGEEVEAVVIKVIQSSAGKIIFSEVAK	0.195
HMEKSLSAQVYEKIKAGIISLKYPPGSVLKERELSESLGVSRTPVREAIQRLSQESWLVPGEGKRMQVRP	0.134
HMAARKDLIAGEDAEGRLDAWLAAALDGEFSRNRVKALIEQGAVAINDVAVTEPKRKIRPGDRLSIVLPEP	0.339
HMSKTQYTFREVGSQFELHAPSTNHKIMVDANHPKYGWLSSQEAGRVINVYESGKMTSSQDYYGLYKQS	-0.0727
HMDFDPDVPSREDILQAFRDSKPPLTVNALISEFGLSRDASIVGLERRMGAMQRDGQLEQTPSGWQLSV	-0.158
HMKDRNISSSVLEILSKDPDHTYNYKQIAALLGVKDAFIRKRIVTLLAQLAKDGHLDEISRGKYQIK	-1.02
HMNGTEAIRRYIDQFASKHATTPRMLKLNERKQLIQELKNNGLLEIKKAVETVAQHLGISRASAYLYVKE	-0.303
HMTLSDIGHAVRTRRTELGLSQVQLARLSGLSRQTLVGLENGTLNDLGINRVAQLLAVLGLDAP	-0.827
HMHTPSGALLSAIEKEWGSFDNFKKEFTTAATSLFGSGWVWLAKDKKGKLYILSENNAGNPITKGYTPILG	-0.262
HMENLSGNDIKYLRKKYNLTQKELADALGLQKFGDRTIRRWEAEETHPSKLEQSSIQSFFNSLK	0.0091
HMGNYEEAILAFEAAIKIDPKNADAYRKLAEAYEKTGDEDAALRTLETGAEATGDRELADLAEKKRQELDA	0.169
HMQHYQFEVDEASSKKRLDVFLSENLPEISRSRLKKLIDEKRVTVNEMSRPAGYKVRVKEKIEFHIPPL	-0.402
HMAMNLQETVLMQLRDLILRGTFEPGQRLSEQPLAERLKASRTPVRSALVTLEQEGLIEASETGKYLVRQ	-0.421
HMKTMEQSYIGRKIILDENVEDSALIKFEGIYWTFKSVSGPLKKGTEVEIIGIEGNKILIKNK	-0.198
HMKQPNSYGSVHKLPGKRRKPWRVRKTSGWLLDEQSGTVKQQYITIGYYATKQEALIALADYNENP	-1.62
HMIYYTEEELVKRYIDFSNYLGKKEGASDVDFKKYAVEFGIPSRDHYNRKFITLFNLKIKAGYKPIRH	-0.763
HMDKPVIEDVSFDDLAYMVGERVIIRTHLRSTRDGELKSFNRAGILVSLRNRPGMELEIPRSTVASAQVVW	-2.45
HMSPLDSHLGRRIALRRQQLNTSAADLEKAISMVPGSVARFEAGRQSLNATQLFTLSRALDVPVLYFFEG	-0.534
HMSRAARLALDALPDEWAQFAESRGLAGSAMAETWETFRDYWQAQPGQKGVKADWAATWRNWVRRETQNRG	-0.167
HMVPVVGTTIPHEFIGKFGSARVMLKPAVEGSGVIAGGSARAVLELAGYKDIKTKVLGTNNPRNVVYATMN	0.0414
HMHNPSYDMSKDVDILVMKFRDYNNLTDDEARFLLDKAKDAYYNTGKEILSDNEYDTLEKSLGQE	0.178
HMEQEVLDLLFDAIRSLPEKYRRLFDMSFEQGLKNAEIAALLHVSESAVKKQKASMIQQLRDDLLRKTGKD	-0.693
HMADFIGMNATVTERIFPQGFGRISFVYEGNSISEPARSEDGKEIPTGTSVVVLEVRDKVYIVQPL	-0.221
